Experiments:
PABPC4 = PABPC4 (UniProt Q13310); assay: Kd (EC50 corrected by depletion factor)
Procedure, shortened: (§1)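 Kd was calculated as EC50, taken from a four-parameter log-logistic fit, multiplied by a protein-dependent depletion factor. The assay used HEK293-FT lysate (2.5 mg protein/well) pre-incubated for 1 h at 4°C with free RNA oligos (0 nM to 30 μM), then incubated for 30 min at 4°C with the matching oligos bound through a 5′-amino-C6 linker to NHS-Sepharose beads. Bound proteins were measured by label-free LC-MS/MS and normalised to the control.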

KHSRP = molecular target: T1, KHSRP (UniProt Q92945); assay: Kd (EC50 corrected by depletion factor)
T1 sequence: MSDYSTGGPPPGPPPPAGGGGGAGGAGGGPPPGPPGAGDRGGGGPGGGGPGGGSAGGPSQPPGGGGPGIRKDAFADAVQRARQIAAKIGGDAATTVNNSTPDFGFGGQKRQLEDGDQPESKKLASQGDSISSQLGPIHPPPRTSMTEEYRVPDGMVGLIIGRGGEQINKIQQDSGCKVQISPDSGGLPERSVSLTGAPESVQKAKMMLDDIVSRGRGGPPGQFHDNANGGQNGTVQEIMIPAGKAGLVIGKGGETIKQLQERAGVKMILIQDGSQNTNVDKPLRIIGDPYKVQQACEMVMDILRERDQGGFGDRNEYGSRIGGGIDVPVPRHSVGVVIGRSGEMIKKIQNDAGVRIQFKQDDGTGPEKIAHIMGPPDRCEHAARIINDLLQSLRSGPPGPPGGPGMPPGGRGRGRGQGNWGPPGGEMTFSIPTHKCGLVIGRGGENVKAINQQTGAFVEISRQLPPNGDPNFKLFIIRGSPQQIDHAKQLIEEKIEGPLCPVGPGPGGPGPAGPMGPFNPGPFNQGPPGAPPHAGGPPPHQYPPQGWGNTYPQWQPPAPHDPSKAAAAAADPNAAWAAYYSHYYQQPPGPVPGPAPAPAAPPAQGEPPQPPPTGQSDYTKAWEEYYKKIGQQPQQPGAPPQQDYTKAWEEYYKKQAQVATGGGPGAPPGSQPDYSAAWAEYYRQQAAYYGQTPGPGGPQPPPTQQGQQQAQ
Procedure, shortened: as §1

LSM4 = molecular target: T2, LSM4 (UniProt Q9Y4Z0); assay: Kd (EC50 corrected by depletion factor)
T2 sequence: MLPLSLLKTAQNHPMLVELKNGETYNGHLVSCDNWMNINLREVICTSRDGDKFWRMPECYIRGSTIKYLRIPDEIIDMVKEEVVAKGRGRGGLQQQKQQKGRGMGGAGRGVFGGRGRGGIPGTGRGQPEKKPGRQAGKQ
Procedure, shortened: as §1

ZC3HAV1 = ZC3HAV1 (UniProt Q7Z2W4); assay: EC50 of free RNA motif oligo competing protein binding to immobilised probe
ZC3HAV1, sequence (Q7Z2W4 whole entry): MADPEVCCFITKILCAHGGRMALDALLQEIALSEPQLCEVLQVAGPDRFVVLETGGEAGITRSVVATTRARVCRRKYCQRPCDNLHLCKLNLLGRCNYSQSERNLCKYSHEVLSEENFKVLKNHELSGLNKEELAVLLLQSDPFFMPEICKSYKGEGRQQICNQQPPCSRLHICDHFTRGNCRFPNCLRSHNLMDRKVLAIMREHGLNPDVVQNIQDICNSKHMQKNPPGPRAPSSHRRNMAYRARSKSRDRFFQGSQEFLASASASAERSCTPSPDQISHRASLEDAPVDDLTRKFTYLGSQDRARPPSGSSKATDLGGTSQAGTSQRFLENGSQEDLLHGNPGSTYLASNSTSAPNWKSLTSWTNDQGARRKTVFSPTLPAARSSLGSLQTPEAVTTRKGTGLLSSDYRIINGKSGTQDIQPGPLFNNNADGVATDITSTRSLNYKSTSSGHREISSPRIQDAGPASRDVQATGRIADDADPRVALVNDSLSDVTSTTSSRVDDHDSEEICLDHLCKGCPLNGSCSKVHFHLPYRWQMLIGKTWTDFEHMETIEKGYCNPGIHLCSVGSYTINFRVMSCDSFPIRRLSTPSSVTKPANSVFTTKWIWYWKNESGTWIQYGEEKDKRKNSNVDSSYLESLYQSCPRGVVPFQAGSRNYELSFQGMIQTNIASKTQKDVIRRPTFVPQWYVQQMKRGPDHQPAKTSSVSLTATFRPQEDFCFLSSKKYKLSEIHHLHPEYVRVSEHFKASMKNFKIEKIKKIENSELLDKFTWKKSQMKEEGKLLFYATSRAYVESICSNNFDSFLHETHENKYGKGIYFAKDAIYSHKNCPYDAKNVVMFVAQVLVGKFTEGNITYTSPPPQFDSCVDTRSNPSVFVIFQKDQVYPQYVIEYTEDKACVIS
Procedure, shortened: as §1

PHAX = PHAX (UniProt Q9H814); assay: as above
PHAX, sequence (Q9H814 whole entry): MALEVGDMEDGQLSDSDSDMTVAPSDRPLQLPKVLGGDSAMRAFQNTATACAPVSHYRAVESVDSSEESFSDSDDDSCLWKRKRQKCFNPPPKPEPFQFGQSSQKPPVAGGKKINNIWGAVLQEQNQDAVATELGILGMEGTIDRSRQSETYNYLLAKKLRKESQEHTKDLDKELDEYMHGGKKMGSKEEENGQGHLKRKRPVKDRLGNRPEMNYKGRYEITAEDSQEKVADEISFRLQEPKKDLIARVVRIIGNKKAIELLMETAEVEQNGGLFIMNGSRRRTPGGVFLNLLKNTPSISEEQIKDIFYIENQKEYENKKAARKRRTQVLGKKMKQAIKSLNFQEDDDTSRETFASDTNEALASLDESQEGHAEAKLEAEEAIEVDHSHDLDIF
Procedure, shortened: as §1

SKIV2L2 = molecular target: T3, SKIV2L2 (UniProt P42285); assay: as above
T3 sequence: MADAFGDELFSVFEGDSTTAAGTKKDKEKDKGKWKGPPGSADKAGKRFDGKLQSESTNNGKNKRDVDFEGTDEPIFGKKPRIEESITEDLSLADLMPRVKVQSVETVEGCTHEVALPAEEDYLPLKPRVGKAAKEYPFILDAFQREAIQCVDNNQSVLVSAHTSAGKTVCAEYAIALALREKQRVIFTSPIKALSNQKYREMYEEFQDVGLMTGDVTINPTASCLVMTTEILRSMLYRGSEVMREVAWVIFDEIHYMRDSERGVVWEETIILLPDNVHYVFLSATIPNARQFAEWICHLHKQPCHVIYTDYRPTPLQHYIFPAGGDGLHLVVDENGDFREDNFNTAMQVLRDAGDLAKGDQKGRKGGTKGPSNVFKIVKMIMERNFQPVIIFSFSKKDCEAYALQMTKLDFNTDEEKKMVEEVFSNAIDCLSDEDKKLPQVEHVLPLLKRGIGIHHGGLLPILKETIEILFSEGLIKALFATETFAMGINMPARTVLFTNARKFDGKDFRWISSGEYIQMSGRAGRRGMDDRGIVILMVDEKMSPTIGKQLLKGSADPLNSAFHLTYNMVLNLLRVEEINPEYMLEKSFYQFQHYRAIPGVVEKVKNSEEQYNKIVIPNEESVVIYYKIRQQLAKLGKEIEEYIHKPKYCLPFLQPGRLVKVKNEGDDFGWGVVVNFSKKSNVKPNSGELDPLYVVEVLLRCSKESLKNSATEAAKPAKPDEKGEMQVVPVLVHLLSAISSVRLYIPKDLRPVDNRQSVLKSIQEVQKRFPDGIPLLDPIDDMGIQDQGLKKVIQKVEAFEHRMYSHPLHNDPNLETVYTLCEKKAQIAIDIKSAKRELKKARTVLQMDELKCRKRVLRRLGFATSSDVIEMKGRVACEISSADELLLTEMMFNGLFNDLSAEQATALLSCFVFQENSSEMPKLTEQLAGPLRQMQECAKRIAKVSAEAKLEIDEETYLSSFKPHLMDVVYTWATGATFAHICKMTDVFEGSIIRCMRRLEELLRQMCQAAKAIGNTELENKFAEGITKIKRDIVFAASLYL
Procedure, shortened: as §1

RTCA = molecular target: T4, RTCA (UniProt O00442); assay: as above
T4 sequence: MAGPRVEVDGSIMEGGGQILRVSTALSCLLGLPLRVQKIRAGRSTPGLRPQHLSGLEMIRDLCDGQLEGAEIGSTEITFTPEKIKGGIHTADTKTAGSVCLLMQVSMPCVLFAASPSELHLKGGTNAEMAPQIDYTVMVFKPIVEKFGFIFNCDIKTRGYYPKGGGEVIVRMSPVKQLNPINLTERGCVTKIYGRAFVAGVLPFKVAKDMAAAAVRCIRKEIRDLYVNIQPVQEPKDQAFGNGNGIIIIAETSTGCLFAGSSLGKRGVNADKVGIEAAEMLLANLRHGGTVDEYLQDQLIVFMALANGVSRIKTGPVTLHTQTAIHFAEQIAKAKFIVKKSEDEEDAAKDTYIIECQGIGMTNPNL
Procedure, shortened: as §1

SLIRP = SLIRP (UniProt Q9GZT3); assay: Kd (EC50 corrected by depletion factor)
Procedure, shortened: as §1

PABPC4, sequence (Q13310 whole entry): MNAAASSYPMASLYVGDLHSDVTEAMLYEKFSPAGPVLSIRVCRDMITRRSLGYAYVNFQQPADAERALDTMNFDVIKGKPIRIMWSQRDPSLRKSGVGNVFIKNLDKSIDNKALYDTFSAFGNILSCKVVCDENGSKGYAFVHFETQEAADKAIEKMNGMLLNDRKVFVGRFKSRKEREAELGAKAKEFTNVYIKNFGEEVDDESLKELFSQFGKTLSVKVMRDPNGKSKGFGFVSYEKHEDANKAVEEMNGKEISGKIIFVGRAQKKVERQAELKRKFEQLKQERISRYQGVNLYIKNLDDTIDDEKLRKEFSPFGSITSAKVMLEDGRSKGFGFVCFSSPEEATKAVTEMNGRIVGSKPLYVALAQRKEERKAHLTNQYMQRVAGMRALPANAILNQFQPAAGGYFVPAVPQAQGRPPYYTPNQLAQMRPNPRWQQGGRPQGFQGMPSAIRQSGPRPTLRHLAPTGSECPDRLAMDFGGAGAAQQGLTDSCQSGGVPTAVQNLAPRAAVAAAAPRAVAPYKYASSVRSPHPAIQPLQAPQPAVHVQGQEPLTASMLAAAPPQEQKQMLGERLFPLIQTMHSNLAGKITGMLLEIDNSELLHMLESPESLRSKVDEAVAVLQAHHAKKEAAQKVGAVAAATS

| Sequence | Kd (PABPC4) [µM] | Kd (KHSRP) [µM] | Kd (LSM4) [µM] | EC50 (ZC3HAV1) [µM] | EC50 (PHAX) [µM] | EC50 (SKIV2L2) [µM] | EC50 (RTCA) [µM] | Kd (SLIRP) [µM] |
| --- | --- | --- | --- | --- | --- | --- | --- | --- |
| UAUUUAU | 7.84 | 0.928 | 0.241 | 5.38 | 9.1 | 0.619 | 0.381 | – |
| AAUAAA | 1.53 | 0.31 | 0.0705 | 3.9 | 10.7 | 2.88 | 0.566 | 0.393 |
| CUGUCCU | – | – | – | 1.32 | 1.35 | 3.47 | 1.94 | 0.904 |
